The target in the data set is octadecenoyl-ACP.

B1: Synechococcus elongatus PCC7942 orf1594 protein (YP-400611; Synpcc7942-1594; acyl-ACP reductase) with C-terminal His-tag (protein)
chain: MFGLIGHLTSLEQARDVSRRMGYDEYADQGLEFWSSAPPQIVDEITVTSATGKVIHGRYIESCFLPEMLAARRFKTATRKVLNAMSHAQKHGIDISALGGFTSIIFENFDLASLRQVRDTTLEFERFTTGNTHTAYVICRQVEAAAKTLGIDITQATVAVVGATGDIGSAVCRWLDLKLGVGDLILTARNQERLDNLQAELGRGKILPLEAALPEADFIVWVASMPQGVVIDPATLKQPCVLIDGGYPKNLGSKVQGEGIYVLNGGVVEHCFDIDWQIMSAAEMARPERQMFACFAEAMLLEFEGWHTNFSWGRNQITIEKMEAIGEASVRHGFQPLALAI
Regarding B1, the “Km for the reduction of octadecenoyl-ACP in the presence of 2 mM NADPH (in vitro reductase assay, aldehyde formed measured by GC/MS)” value worked out at 7.8 ± 2 µM.
